Experimental data: patent publication US10842793B2, “Inhibitors of the unconventional secretion of fibroblast growth factor 2 (FGF2) by tumor cells and uses thereof” (Universität Heidelberg, priority 2016, dated 2020)

Tests used:
[1] = molecular target: T1, SH1 kinase domain of Tec (Homo sapiens, UniProt P42680); experiment: Steady-state fluorescence polarization, FGF2 binding to SH1 kinase domain of Tec; settings: fluorescein-labeled FGF2 50 nM, 1:1 stoichiometry, ± SEM; read-out: dissociation constant FGF2 / SH1 kinase domain of Tec
T1 construct: yielding a homogenous preparation of the SH1 kinase domain; His (N, cleaved yes); made in house; host or cells: Tec SH1: SF9 insect cells (baculovirus); FGF2: E. coli
T1 sequence (P42680 370-623 limits assumed): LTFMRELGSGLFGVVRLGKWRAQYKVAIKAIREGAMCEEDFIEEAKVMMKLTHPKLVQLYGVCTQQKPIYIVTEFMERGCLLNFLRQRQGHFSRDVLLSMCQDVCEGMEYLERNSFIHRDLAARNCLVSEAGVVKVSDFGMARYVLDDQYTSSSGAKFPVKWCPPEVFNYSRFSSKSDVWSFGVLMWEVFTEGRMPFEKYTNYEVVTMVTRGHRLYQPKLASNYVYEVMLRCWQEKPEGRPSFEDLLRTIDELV
Method: (§1) (A) Fluorescence polarization experiments were conducted using fluorescein-labeled FGF2. FGF2 (at a constant concentration of 50 nM) was incubated with increasing concentrations (0 to 20 μM) of the various Tec constructs indicated. Following incubation for 3 hours at room temperature, changes in polarization (ΔPolarization in mP) were recorded. A non-linear regression analysis was conducted (GST-NΔ173 Tec: black circles, n=8; SH1 kinase domain: green squares, n=5; GST-PH-TH: blue triangles, n=3; GST-SH3-SH2: red triangles, n=3; GST: orange rhombuses, n=5) and standard errors of the mean (SEM) were calculated. As detailed in Experimental Procedures, assuming a binding stoichiometry of 1:1, dissociation constants were calculated to be 1.434 μM±0.55 (SEM) for GST-NΔ173 Tec and 1.032 μM±0.29 (SEM) for the SH1 kinase domain of Tec. FIG. 2A discloses “His6” as SEQ ID NO: 2.
(§2) To determine binding affinity between Tec kinase and FGF2, steady-state fluorescence polarization was used. […] Based on the extinction coefficients of both His-tagged FGF2 and fluroscein-5-maleimide, the degree of labeling was determined to be 30%. […] Absolute protein concentrations were determined based upon the extinction coefficients calculated for each protein and measuring absorption at 280 nm using a NanoDrop 1000 spectrophotometer. […]

[2] = molecular target: T2, GST-NΔ173 Tec (Homo sapiens, UniProt P42680); experiment: Steady-state fluorescence polarization, FGF2 binding to GST-NΔ173 Tec; settings: fluorescein-labeled FGF2 50 nM, 1:1 stoichiometry, ± SEM; read-out: dissociation constant FGF2 / GST-NΔ173 Tec
T2 construct: made in house; host or cells: Tec: SF9 insect cells (baculovirus); FGF2: E. coli
T2 sequence (P42680 174-631, stated change not applied): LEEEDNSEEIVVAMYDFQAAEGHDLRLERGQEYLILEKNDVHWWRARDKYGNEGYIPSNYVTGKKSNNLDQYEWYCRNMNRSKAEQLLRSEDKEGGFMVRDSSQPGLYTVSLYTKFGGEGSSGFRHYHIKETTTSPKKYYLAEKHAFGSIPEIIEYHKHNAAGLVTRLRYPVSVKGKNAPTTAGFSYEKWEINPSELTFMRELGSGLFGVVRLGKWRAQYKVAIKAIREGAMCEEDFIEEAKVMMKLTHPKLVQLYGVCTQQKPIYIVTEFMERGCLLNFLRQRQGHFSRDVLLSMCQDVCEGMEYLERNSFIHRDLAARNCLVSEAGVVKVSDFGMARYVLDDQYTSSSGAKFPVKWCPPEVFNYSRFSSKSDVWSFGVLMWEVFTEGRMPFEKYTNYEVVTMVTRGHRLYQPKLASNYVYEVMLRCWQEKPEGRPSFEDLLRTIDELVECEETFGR
Method: as §1, §2

- Kd [1]: 1030 nM
- Kd [2]: 1430 nM
Substance: FGF2: recombinant fibroblast growth factor 2, His-tagged and fluorescein-labeled for fluorescence polarization
